T1: neutrophil elastase (Homo sapiens, UniProt P08246)
T1 sequence (P08246 30-267): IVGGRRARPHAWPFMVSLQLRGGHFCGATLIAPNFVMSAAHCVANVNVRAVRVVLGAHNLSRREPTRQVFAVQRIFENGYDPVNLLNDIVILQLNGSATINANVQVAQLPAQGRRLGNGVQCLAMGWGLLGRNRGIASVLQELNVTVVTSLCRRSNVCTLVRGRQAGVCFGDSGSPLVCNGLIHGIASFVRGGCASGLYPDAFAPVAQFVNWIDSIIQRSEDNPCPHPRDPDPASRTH

B1: AAT 1-2: murine α-1-antitrypsin protein corresponding to one of the Serpina1 genes (A-E) (protein, UniProt P22599 25-413, looked up)
Alpha-1-antitrypsin 1-2: EDVQETDTSQKDQSPASHEIATNLGDFAISLYRELVHQSNTSNIFFSPVSIATAFAMLSLGSKGDTHTQILEGLQFNLTQTSEADIHKSFQHLLQTLNRPDSELQLSTGNGLFVNNDLKLVEKFLEEAKNHYQAEVFSVNFAESEEAKKVINDFVEKGTQGKIVEAVKELDQDTVFALANYILFKGKWKKPFDPENTEEAEFHVDKSTTVKVPMMMLSGMLDVHHCSILSSWVLLMDYAGNASAVFLLPEDGKMQHLEQTLNKELISKILLNRRRRLVQIHIPRLSISGDYNLKTLMSPLGITRIFNNGADLSGITEENAPLKLSKAVHKAVLTIDETGTEAAAATVFEAVPMSMPPILRFDHPFLFIIFEEHTQSPIFVGKVVDPTHK
B2: AAT 1-1: murine α-1-antitrypsin protein corresponding to one of the Serpina1 genes (A-E) (protein, UniProt P07758 25-413, looked up)
Alpha-1-antitrypsin 1-1: EDVQETDTSQKDQSPASHEIATNLGDFAISLYRELVHQSNTSNIFFSPVSIATAFAMLSLGSKGDTHTQILEGLQFNLTQTSEADIHKSFQHLLQTLNRPDSELQLSTGNGLFVNNDLKLVEKFLEEAKNHYQAEVFSVNFAESEEAKKVINDFVEKGTQGKIAEAVKKLDQDTVFALANYILFKGKWKKPFDPENTEEAEFHVDESTTVKVPMMTLSGMLHVHHCSTLSSWVLLMDYAGNATAVFLLPDDGKMQHLEQTLSKELISKFLLNRRRRLAQIHFPRLSISGEYNLKTLMSPLGITRIFNNGADLSGITEENAPLKLSQAVHKAVLTIDETGTEAAAVTVLQMVPMSMPPILRFDHPFLFIIFEEHTQSPIFLGKVVDPTHK
B3: AAT 1-3: murine α-1-antitrypsin protein corresponding to one of the Serpina1 genes (A-E) (protein, UniProt Q00896 25-412, looked up)
Alpha-1-antitrypsin 1-3: EDVQETDTSQKDQSPASHEIATNLGDFAISLYRELVHQSNTSNIFFSPVSIATAFAMLSLGSKGDTHTQILEGLQFNLTQTSEADIHKSFQHLLQTLNRPDSELQLSTGNGLFVNNDLKLVEKFLEEAKNHYQAEVFSVNFAESEEAKKVINDFVEKGTQGKIVEAVKKLDQDTVFALANYILFKGKWKKPFDPENTEEAEFHVDESTTVKVPMMTLSGMLDVHHCSTLSSWVLLMDYAGNATAVFLLPDDGKMQHLEQTLSKELISKFLLNRRRRLAQIHFPRLSISGEYNLKTLMSPLGITRIFNNGADLSGITEENAPLKLSQAVHKAVLTIDETGTEAAAVTVLLAVPYSMPPILRFDHPFLFIIFEEHTQSPLFVGKVVDPTH
B4: AAT 1-4: murine α-1-antitrypsin protein corresponding to one of the Serpina1 genes (A-E) (protein, UniProt Q00897 25-413, looked up)
Alpha-1-antitrypsin 1-4: EDVQETDTSQKDQSPASHEIATNLGDFALRLYRELVHQSNTSNIFFSPVSIATAFAMLSLGSKGDTHTQILEGLQFNLTQTSEADIHKSFQHLLQTLNRPDSELQLSTGNGLFVNNDLKLVEKFLEEAKNHYQAEVFSVNFAESEEAKKVINDFVEKGTQGKIVEAVKKLDQDTVFALANYILFKGKWKQPFDPENTEEAEFHVDESTTVKVPMMTLSGMLDVHHCSMLSSWVLLMDYAGNTTAVFLLPDDGKMQHLEQTLNKELISQFLLNRRRSDAQIHIPRLSISGNYNLKTLMSPLGITRIFNNGADLSGITEENAPLKLSKAVHKAVLTIDETGTEAAAATVLQVATYSMPPIVRFDHPFLFIIFEEHTQSPIFVGKVVDPTHK

Key:
[1] = Respiratory phenotype in response to intratracheal PPE; assay type: in vivo, mice; details: intratracheal dose of 0.33 IU; FIG. 7
Description: FIG. 7. Respiratory phenotype in response to a low and high dose of PPE.

pancreatic elastase = pancreatic elastase (Sus scrofa, UniProt P00772); details: murine AAT protein, C57BL/6J; cited from earlier work
pancreatic elastase, sequence (P00772 27-266): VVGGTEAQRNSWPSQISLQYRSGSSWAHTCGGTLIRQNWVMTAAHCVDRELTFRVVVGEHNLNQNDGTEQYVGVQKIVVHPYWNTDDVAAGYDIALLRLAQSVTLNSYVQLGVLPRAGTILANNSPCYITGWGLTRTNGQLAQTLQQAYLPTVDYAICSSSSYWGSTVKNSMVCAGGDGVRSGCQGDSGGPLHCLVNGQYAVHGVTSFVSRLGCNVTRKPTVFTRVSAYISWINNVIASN

neutrophil elastase = target: T1, neutrophil elastase; details: murine AAT protein, C57BL/6J; cited from earlier work

| Molecule | respiratory phenotype [1] | inhibition of pancreatic elastase (pancreatic elastase) | inhibition of neutrophil elastase (neutrophil elastase) |
| --- | --- | --- | --- |
| PPE: porcine pancreatic elastase | a stronger phenotype is induced |  |  |
| B1 |  | inhibit | inhibit |
| B2 |  | inhibit | inhibit |
| B3 |  | do not | do not |
| B4 |  | do not | do not |

From US10822618B2, “Method of using a transgenic mouse with alpha-one antitrypsin (ATT) deficiency to screen compounds” (University of Massachusetts, priority 2016, dated 2020)
